From US12122830 (ABL BIO, dated 2024)
Residue numbers refer to the chain shown, from its start.

B1: A2F2 anti-ROR1 IgG antibody (antibody, V domains shown)
VH: EVQLLESGGGLVQPGGSLRLSCAASGFTFSDYYMSWVRQAPGKGLEWVSSISPDGSNTYYADSVKGRFTISRDNSKNTLYLQMNSLRAEDTAVYYCAKNLRAFDYWGQGTLVTVSS
VL: QSVLTQPPPASGTPGQRVTISCSGSSSNIGSNTVYWYQQLPGTAPKLLIYANSQRPSGVPDRFSGSKSGTSASLAISGLRSEDEADYYCGSWDYSLSGYVFGGGTKLTVLG
B2: D2B12 anti-ROR1 IgG antibody (antibody, V domains shown)
VH: EVQLLESGGGLVQPGGSLRLSCAASGFTFSNYDMSWVRQAPGKGLEWVSSISPSSGSSIYYADSVKGRFTISRDNSKNTLYLQMNSLRAEDTAVYYCAKAPGWCQAPSCYYDNAMDVWGQGTLVTVSS
VL: B1 VL with P9S, S31N, T33D, Y35S, A51D, N52D, S91A, Y94D
B3: A2F3 anti-ROR1 IgG antibody (antibody, V domains shown)
VH: EVQLLESGGGLVQPGGSLRLSCAASGFTFSSYDMSWVRQAPGKGLEWVSWISPGGGSKYYADSVKGRFTISRDNSKNTLYLQMNSLRAEDTAVYYCARVNGRFDYWGQGTLVTVSS
VL: B1 VL with P9S, S31N, T33N, Y35S, N52D, Q54H, G90A, S91T

Target: T1, mouse ROR1 expressed on the cell surface (CHO-mouse ROR1) (mouse, UniProt Q9Z139 30-937)
T1 construct: whole, on cells; Temporarily transfected CHO cells
Test: flow cytometry on CHO cells transiently overexpressing mouse ROR1, FITC anti-human Fc detection, MFI ratio to 2nd Ab
Procedure: For this experiment, the degree of binding of the anti-ROR1 antibody and ROR1 was measured by using FACSCalibur (BD Biosciences) device with the cell lines as follows, the cell lines artificially overexpressing the ROR1 protein by transfecting an ROR1 gene temporarily (CHO-human ROR1, CHO-human ROR2, CHO-mouse ROR1) or stably (MC38-human ROR1) (FIG. 5 and FIG. 7, respectively) or the cell lines expressing ROR1 (JeKo-1, Mino) (FIG. 6) or a cell line not expressing ROR1 (MCF7) (FIG. 6). […] JeKo-1, Mino, CHO-human ROR1, CHO-mouse ROR1 and MC38-human ROR1 are all cell lines expressing human ROR1 or mouse ROR1.
Specifically, after disassociating each cell line and washing in PBS, the number of cells was counted and set as 2×10^5 cells/200 µl PBS, and then each ROR1 monoclonal antibody in Example 3 was prepared in 10 µg/mL or as 5 fold-diluted from 10 µg/mL, and was reacted at 4° C. for 1 hour. After reaction, cells were washed in PBS and then the FITC-labeled constant region (Fc)-specific antibody (Goat anti-human IgG FITC conjugate, Fc specific, Sigma, F9512, concentration: 2.0 mg/ml) was suspended in 2 µl/1×10^5 cells/200 µl PBS, and it was reacted at 4° C. for 1 hours. The confirmation of expression degree of human ROR1, human ROR2 and mouse ROR1 that were temporarily overexpressed was analyzed by using a commercially available antibody for FACS analysis (anti-ROR1: R&D Systems, FAB2000G, anti-ROR2: R&D, FAB20641P). After reaction, cells were washed in PBS and decoded by using a FACSCalibur device. The negative control group (2nd Ab) was treated only with the FITC-labeled constant region (Fc)-specific antibody. The result for the peak shift in the experimental group treated with each ROR1 monoclonal antibody was compared to the result for the shift in the control group (Mean Fluorescence Intensity Ratio, MFI Ratio: MFI of anti-ROR1/MFI of 2nd Ab).

T1 sequence (Q9Z139 30-937): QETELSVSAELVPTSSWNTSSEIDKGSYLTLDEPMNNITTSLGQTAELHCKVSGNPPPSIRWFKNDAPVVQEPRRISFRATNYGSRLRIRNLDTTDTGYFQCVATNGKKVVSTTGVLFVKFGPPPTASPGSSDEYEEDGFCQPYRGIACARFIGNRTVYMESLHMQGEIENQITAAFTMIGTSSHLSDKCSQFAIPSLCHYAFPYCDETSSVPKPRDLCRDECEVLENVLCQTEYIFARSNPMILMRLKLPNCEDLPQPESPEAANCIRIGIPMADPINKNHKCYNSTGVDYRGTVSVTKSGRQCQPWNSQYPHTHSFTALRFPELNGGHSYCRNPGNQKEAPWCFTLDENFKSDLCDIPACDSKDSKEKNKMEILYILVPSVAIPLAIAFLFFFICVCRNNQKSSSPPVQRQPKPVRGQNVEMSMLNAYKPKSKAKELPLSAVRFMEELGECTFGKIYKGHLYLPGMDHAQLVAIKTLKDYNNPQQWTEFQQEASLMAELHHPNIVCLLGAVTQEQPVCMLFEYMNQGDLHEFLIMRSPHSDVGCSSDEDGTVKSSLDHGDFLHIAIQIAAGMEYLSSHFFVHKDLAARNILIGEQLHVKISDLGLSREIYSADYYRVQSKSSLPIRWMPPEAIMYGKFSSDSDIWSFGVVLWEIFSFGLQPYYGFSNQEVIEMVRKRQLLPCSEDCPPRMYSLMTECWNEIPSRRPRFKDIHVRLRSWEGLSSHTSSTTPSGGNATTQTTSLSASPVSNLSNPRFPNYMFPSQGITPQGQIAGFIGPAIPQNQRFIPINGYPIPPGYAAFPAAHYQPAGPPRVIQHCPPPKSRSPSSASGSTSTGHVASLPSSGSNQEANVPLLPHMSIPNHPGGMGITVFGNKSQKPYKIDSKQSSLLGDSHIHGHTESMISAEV

Binding result, binds:
B1
B2
B3

Target: T2, recombinant mouse ROR1 protein (Acrobiosystems, RO1-M5221) (mouse, UniProt Q9Z139 30-406)
T2 construct: extracellular domain; Bought; also called mouse ROR1 antigen
Test: ELISA, recombinant mouse ROR1 protein coated at 1 µg/ml, IgG titrated, HRP anti-Fab detection
Procedure: The anti-ROR1 antibody-antigen binding affinity was estimated by using an ELISA-based solution binding test. Specifically, a 96-well microtiter plate (Nunc-Immuno Plates, NUNC) was coated with the ROR1 protein at a concentration of 1 µg/ml in a PBS solution as described below at 4° C. for 16 hours, and non-specific binding sites were blocked with 3% BSA (bovine serum albumin) for 2 hours. For this, as the ROR1 protein, in case of human ROR1, ROR1-Fc of Example 1 or recombinant ROR1-His (Sino Biological, 13968-H08H) was used. The ROR1-His used for ELISA was a protein of sino biological company (13968-H08H) as described in the above sentence, and ROR1-His of Example 1 or recombinant mouse ROR1 protein was used (Acrobiosystems, RO1-M5221-100 µg).
Then, after adding the anti-ROR1 antibody prepared in Example 3 at the concentration described in FIG. 2 into the microtiter plate on a 96-well microtiter plate, the binding capacity was analyzed with ELISA as follows. Specifically, after constant temperature treatment for 2 hours, the plate was washed with PBS comprising 0.05% tween 20 5 times, and then a HRP-conjugated Fab multiclonal antibody reagent (Pierce, 31414) was diluted at 1:10,000 ratio, and was put into the washed microtiter plate, and it was incubated at 37° C. for 1 hour, and the ROR1 antibody bound to the plate was detected. After reaction, it was color-developed by using TMB (Tetramethylbenzidine, Sigma, T0440). The enzymatic reaction was stopped by 0.5 mol/L of sulfuric acid, and the absorbances at 450 nm and 650 nm were measured by using a micro plate reader device (molecular device) (450 nm-650 nm).

T2 sequence (Q9Z139 30-406): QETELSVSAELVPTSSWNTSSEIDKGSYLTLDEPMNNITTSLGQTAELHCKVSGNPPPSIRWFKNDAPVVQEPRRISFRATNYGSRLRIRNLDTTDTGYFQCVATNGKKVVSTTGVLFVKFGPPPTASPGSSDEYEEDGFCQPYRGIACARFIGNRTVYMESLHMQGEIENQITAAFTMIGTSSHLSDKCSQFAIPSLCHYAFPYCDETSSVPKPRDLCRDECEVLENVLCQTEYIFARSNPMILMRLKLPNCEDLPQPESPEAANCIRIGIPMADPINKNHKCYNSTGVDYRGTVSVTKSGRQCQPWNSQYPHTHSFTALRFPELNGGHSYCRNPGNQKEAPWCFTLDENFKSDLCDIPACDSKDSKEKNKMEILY

Binding result, binds:
B1
B2
B3
